The record followed here is US20240309087A1 (SHANGHAI JUNSHI BIOSCIENCES, published 2024).

The target in experiment [1] is T1, hCD112R mFC recombinant protein (human; murine, UniProt Q6DKI7 41-160).
T1 construct: range 41-160; expressed in 293E cells; also called hCD112R ECD mFC; hCD112R-ECD-mFC; not shown: murine IgG2a Fc domain (MX2-mFc vector)
T1 sequence (looked up): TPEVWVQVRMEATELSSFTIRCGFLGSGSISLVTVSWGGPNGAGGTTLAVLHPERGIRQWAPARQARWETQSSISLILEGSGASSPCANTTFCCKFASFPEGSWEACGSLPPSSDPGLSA
Description: FACS competition, hCD112R mFc on CHO CD112 cells. The protocol: Unbound antibodies were then washed with a staining buffer and the cells were incubated with 1% (v/v) goat anti-mouse IgG Fc fluorescent secondary antibodies (Jackson ImmunoResearch) prepared in a staining buffer at 4° C. for 30 min in the dark. Finally, the cells were collected by using a flow cytometer, and the fluorescent antibodies bound to the cell surface were detected. Raw data were analyzed by using FlowJo to obtain MFI values, and a four-parameter curve fitting was performed by using GraphPad Prism software to obtain IC₅₀ values.

Experiment [2] concerns the target T1, hCD112R mFC recombinant protein. As to the kind of experiment: Biacore T200, antibody captured, hCD112R mFc injected. The procedure:
Biacore T200 was used to assay the binding affinity of the anti-CD112R hybridoma antibodies for the recombinant hCD112R mFc protein. […] antibody fragments (Jackson ImmunoResearch) were coupled to the surface of a CM5 chip, and the anti-CD112R hybridoma antibodies were each captured by using the chip, after which recombinant hCD112R mFc proteins at different concentrations were injected into the CM5 chip.

In experiment [3] the target is T2, human CD112R on CHO-CD112R cells (human, UniProt Q6DKI7 41-326).
T2 construct: whole, on cells; also called hCD112R; PVRIG
T2 sequence (looked up): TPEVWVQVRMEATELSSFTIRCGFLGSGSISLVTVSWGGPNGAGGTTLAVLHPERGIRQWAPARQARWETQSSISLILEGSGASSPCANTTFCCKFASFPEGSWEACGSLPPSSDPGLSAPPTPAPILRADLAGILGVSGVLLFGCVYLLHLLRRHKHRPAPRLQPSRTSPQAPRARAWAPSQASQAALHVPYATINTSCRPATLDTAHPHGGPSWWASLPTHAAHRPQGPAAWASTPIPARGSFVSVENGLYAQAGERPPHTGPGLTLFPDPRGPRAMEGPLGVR
Description: FACS on CHO-CD112R cells; EC50 Ref/EC50 antibody. The protocol: (§1) CHO-CD112R cells (constructed in-house by Junshi, the amino acid sequence of CD112R in the construction of stable cell lines overexpressing CD112R comprises amino acids at positions Met1-Arg326 under NCBI accession No. Q6DKI7) overexpressing human CD112R were incubated with each of the chimeric anti-CD112R antibodies at different concentrations (initial concentration: 50 μg/mL, 5-fold dilution, 12 concentration gradients in total) at 4° C. for 30 min, and then washed and incubated with a fluorescence-labeled secondary antibody at 4° C. for 30 min in the dark. Finally, the cells were collected by using a flow cytometer (BD Canto II), and the fluorescent antibodies bound to the cell surface were detected. Raw data were analyzed by using FlowJo to obtain MFI values, the antibody dose-dependent binding curves were fitted by using GraphPad (FIG. 3, a and b) and EC₅₀ was calculated (Table 3). The positive control and the negative control were Ref (anti-CD112R antibody, University of Colorado, obtained by expression and purification according to the sequences in US20170240613) and anti-KLH hu-IgG4 antibody, respectively.

Experiment [4] deals with T3, human CD112R on Jurkat CD112R effector cells (human, UniProt Q6DKI7 1-326).
T3 sequence (looked up): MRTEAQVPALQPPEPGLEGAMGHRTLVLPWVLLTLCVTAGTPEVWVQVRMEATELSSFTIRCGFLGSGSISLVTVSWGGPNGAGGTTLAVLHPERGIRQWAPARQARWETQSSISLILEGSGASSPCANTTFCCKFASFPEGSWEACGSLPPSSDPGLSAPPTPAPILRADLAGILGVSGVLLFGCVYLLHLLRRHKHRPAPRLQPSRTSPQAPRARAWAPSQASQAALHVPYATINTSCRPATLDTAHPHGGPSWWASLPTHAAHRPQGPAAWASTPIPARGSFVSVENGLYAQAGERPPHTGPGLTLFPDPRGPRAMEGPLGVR
Description: cell-based or functional assay.

For experiment [5], the target named is T4, recombinant cynomolgus monkey CD112R antigen (cynomolgus monkey, UniProt A0A2K5WVV8 1-322).
T4 construct: bought
T4 sequence: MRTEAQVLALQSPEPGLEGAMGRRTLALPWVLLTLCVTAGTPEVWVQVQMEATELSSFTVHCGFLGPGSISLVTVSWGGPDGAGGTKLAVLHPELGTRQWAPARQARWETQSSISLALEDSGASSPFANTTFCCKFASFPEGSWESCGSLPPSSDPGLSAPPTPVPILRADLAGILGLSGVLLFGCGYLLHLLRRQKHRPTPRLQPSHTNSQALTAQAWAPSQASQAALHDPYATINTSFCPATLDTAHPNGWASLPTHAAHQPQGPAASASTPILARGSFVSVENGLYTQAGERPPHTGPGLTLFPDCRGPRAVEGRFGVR
Description: ELISA, coated cynomolgus monkey CD112R. The procedure:
(§2) A plate was coated with a recombinant cynomolgus monkey CD112R antigen (Acrobiosystems, Cat No. PVG-C5259) at a fixed concentration, and the chimeric anti-CD112R antibodies diluted in a gradient (initial concentration: 1 μg/mL, 2.5-fold gradient dilution, 12 concentration gradients in total) were added to bind to the antigen. Horseradish peroxidase (HRP)-conjugated mouse anti-human IgG4 Fc (Southern Biotech, 9200-05) was subjected to a 5000-fold dilution and used as a detection antibody for detection. The color development was performed with 0.1 mg/mL TMB, and finally stopped with 2 M hydrochloric acid. The plate was read at 420 nm/620 nm. EC₅₀ was obtained by fitting with a four-parameter logistic regression (4PL) model.

Experiment [6] has as its target T2, human CD112R on CHO-CD112R cells. Description: FACS on CHO-CD112R cells. The protocol: as §1
For experiment [7], the target named is T1, hCD112R mFC recombinant protein. Description: FACS competition, hCD112R mFc on CHO CD112 cells. The protocol:
(§3) Cells CHO CD112 overexpressing human CD112 were co-incubated with a hCD112R mFc protein solution (5 μg/mL) prepared in a staining buffer (PBS+1% FBS), and the chimeric anti-CD112R antibodies or the control antibodies at different concentrations (initial concentration: 100 μg/mL, 3-fold dilution, 10 concentration gradients) at 4° C. for 30 min. Unbound antibodies were then washed with a staining buffer and the cells were incubated with 1% (v/v) goat anti-mouse IgG Fc fluorescent secondary antibodies (Jackson ImmunoResearch) prepared in a staining buffer at 4° C. for 30 min in the dark. Finally, the cells were collected by using a flow cytometer (BD Canto II), and the fluorescent antibodies bound to the cell surface were detected. Raw data were analyzed by using FlowJo to obtain MFI values, and a four-parameter curve fitting was performed by using GraphPad Prism software to obtain IC₅₀ values. The positive control and the negative control were Ref (anti-CD112R antibody, University of Colorado, obtained by expression and purification according to the sequences in US20170240613) and the anti-KLH hu-IgG4 antibody, respectively.
As shown in FIG. 5 (a and b) and Table 8, the following 13 chimeric antibodies were all capable of effectively blocking the binding of the CD112R protein to CHO-CD112 cells.
This is another data set of the same source.

For experiment [8] the target is unchanged. Description: FACS competition, hCD112R mFc on CHO CD112 cells; ratio Ref/antibody. The protocol:
as §3

Experiment [9] shares this target. Description: FACS blocking: hCD112R mFc (5 µg/mL) binding to human CD112 on CHO CD112 cells, MFI-APC; unit from the axis (µg/mL), Table 8 says ng/ml. The protocol: as §3
Experiment [10] addresses T4, recombinant cynomolgus monkey CD112R …. Description: ELISA, coated cynomolgus monkey CD112R; EC50 Ref/EC50 antibody. The protocol: as §2

B1: 6A6.1 (antibody, V domains shown)
VH: EVQLQQSGAELVRSGTSVTLSCTASGFNIRDYFIHWVKQRPEQGLEWIGWIIPASGDTDCAPIFQGKATLTADTFSNTAYLHLNSLTSEDTAVYYCNTWVWSPYAVDYWGQGTSVTVSS
VL: DVLMTQTPLSLPVSLGDQTSISCRSSQSIVHSNGNTYLHWYLQKPGQSPKLLIYKVSNRFSGVPDRFSGSGSGTDFTLKISRVEAEDLGVYYCFQGSHVPWTFGGGTRLEIK
notes: murine hybridoma antibody
Consider B1, for which the IC50 in experiment [1] stood at 0.145 µg/mL. Further, the equilibrium dissociation constant (Kd) in [2] turned out to be 0.0174 nM.

B2: 5B1.1 (antibody, V domains shown)
VH: B1 VH
VL: DIVMTQFPSSLSVPVGEKVTMNCKSSQSLLNSGNQKNFLAWYQQKPGQPPKLLIYGASTRESGVPYRFTGSGSGTDFTLTISSVQAEDLAVYYCQNDHSYPWTFGGGTKLEIK
notes: murine hybridoma antibody
In the case of B2, the IC50 in [1] was 0.147 µg/mL. Also, the Kd in [2] is 0.0163 nM.

B3: Chi-61 (antibody, V domains shown)
VH: DVKLVESGGGLVKLGGSLKLSCAASGFTFSSYHMSWVRQTPEKRLELVAAISRDGDSTYYPDTVKGRFTISRDDAENTLYLQMSSLKSEDTALYYCSRHEDYFGFAMDSWGQGTSVTVSS
VL: SIVMTQTPKFLLVSAGDRVTITCKASQSVSNDVAWYQEKPGQSPKLLMYYVSHRFTGVPDRFTGSGYGTDFTFTINTVQAEDLAVYFCHQAYRSPWTFGGGTKLEIK
notes: chimeric
Turning to B3, the “Relative activity (%)” value is 3990% in experiment [3], 110% in experiment [8] and 83.8% in experiment [10]. In addition, the “EC50, CD112R/CD112 reporter” value in [4] turned out to be 0.019 µg/mL. Besides, the “Relative activity (%), EC50 Ref/EC50 antibody” value in experiment [4] was found to be 1590%. In addition, the values for the EC50 in experiment [5] and in experiment [6] were 0.005 µg/mL and 0.107 µg/mL, respectively. Moreover, the IC50 in experiment [7] and in [9] was 0.965 µg/mL each time.

B4: 8D3.1 (antibody, V domains shown)
VH: QIQLVQSGPELKKPGETVKISCKASGYTFTDYSMHWVKQAPGKGLKWVGWISTETAQPTYADDFRGRFAFSLETSASTAYLQINNLRNEDTATYFCATGNYGWYFSVWGAGTTVTVSS
VL: ENVLTQSPAIMSASPGEKVTMTCRATSGVSSSYLFWYQQKSGASPKIWIYSTSNLASGVPTRFSGSGSGTSYSLTISSVEAEDAATYYCQQYSGYPYTFGGGTKLEIK
notes: murine hybridoma antibody
As for B4, the IC50 in experiment [1] was found to be 0.148 µg/mL. Moreover, the Kd in experiment [2] was found to be 0.0158 nM.

B5: 6D2.1 (antibody, V domains shown)
VH: EVQLQQSGPELVKPGASVKISCKASGYTFTDYNIHWVKQSHGKRPDWIGYNYPYNGGAGYNQNFRSRATLTVDKFSSTAYMELRSLTSEDSAVYYCAGEEVRRGPFYFWGQGTSVTVSS
VL: DIQMTQSPDSLSASVGETVTITCRTSENIYSFLVWYQQKQGKSPQLLVYNAKTLAEGVPSRFSGSGSGTQFSLKINSLQPEDFGTYYCQHYYGTPYTFGGGTKLEIK
notes: murine hybridoma antibody
Consider B5, for which, in [1], the IC50 is 0.272 µg/mL. Further, in experiment [2], the dissociation constant Kd came to 0.0134 nM.

B6: 6C6.1 (antibody, V domains shown)
VH: EVQLQQSGPELVRPGASVRISCKASGYTFTDYNMNWVKQSHGKSLEWIGYIYPYNGGAGYNQNFKNKATLTVDTYSRAAYMELRSLTSEDSAVYYCARERGMQRDYFDYWGQGTILTVSS
VL: DIQMTQSPASLSVSVGETVTITCRTSENIYSNLAWYQQKQGKSPQLLVYAATNLADGVPSRFSGSGSGTQFSLKINSLQSGDFGSYFCQHFWGTPYTFGGGTKLEIK
notes: murine hybridoma antibody
For B6, the 50% inhibitory concentration (IC50) in experiment [1] was 0.0229 µg/mL. The dissociation constant (Kd) in experiment [2] was found to be 0.0205 nM.

B7: 1D11.1 (antibody, V domains shown)
VH: EVQLQQSGPELVKPGASVKISCKASGYPFINYNIHWLRQSRGKSLEWIGYVYPYNGVPGYNQKFKSKATLTADNSFSTAYMEFRSLTSEDSAVYFCARERGRDYFDSWGQGTSLTVSS
VL: DIQLTQSPASLSVSVGETVTITCRVSANIYSNLVWYHQRQGKSPQLLVYGGTNLADGVPSRFSGSGSGTQFSLKINSLQSEDFGSYHCQHFWSTPYTFGGGTKLEIK
notes: murine hybridoma antibody
For the molecule B7, the IC50 in experiment [1] was found to be 0.207 µg/mL. The dissociation constant (Kd) in experiment [2] was determined as 0.0236 nM.
